B1: Integrin alpha-L (Homo sapiens), P20701 (parent)
chain: MKDSCITVMAMALLSGFFFFAPASSYNLDVRGARSFSPPRAGRHFGYRVLQVGNGVIVGAPGEGNSTGSLYQCQSGTGHCLPVTLRGSNYTSKYLGMTLATDPTDGSILACDPGLSRTCDQNTYLSGLCYLFRQNLQGPMLQGRPGFQECIKGNVDLVFLFDGSMSLQPDEFQKILDFMKDVMKKLSNTSYQFAAVQFSTSYKTEFDFSDYVKRKDPDALLKHVKHMLLLTNTFGAINYVATEVFREELGARPDATKVLIIITDGEATDSGNIDAAKDIIRYIIGIGKHFQTKESQETLHKFASKPASEFVKILDTFEKLKDLFTELQKKIYVIEGTSKQDLTSFNMELSSSGISADLSRGHAVVGAVGAKDWAGGFLDLKADLQDDTFIGNEPLTPEVRAGYLGYTVTWLPSRQKTSLLASGAPRYQHMGRVLLFQEPQGGGHWSQVQTIHGTQIGSYFGGELCGVDVDQDGETELLLIGAPLFYGEQRGGRVFIYQRRQLGFEEVSELQGDPGYPLGRFGEAITALTDINGDGLVDVAVGAPLEEQGAVYIFNGRHGGLSPQPSQRIEGTQVLSGIQWFGRSIHGVKDLEGDGLADVAVGAESQMIVLSSRPVVDMVTLMSFSPAEIPVHEVECSYSTSNKMKEGVNITICFQIKSLIPQFQGRLVANLTYTLQLDGHRTRRRGLFPGGRHELRRNIAVTTSMSCTDFSFHFPVCVQDLISPINVSLNFSLWEEEGTPRDQRAQGKDIPPILRPSLHSETWEIPFEKNCGEDKKCEANLRVSFSPARSRALRLTAFASLSVELSLSNLEEDAYWVQLDLHFPPGLSFRKVEMLKPHSQIPVSCEELPEESRLLSRALSCNVSSPIFKAGHSVALQMMFNTLVNSSWGDSVELHANVTCNNEDSDLLEDNSATTIIPILYPINILIQDQEDSTLYVSFTPKGPKIHQVKHMYQVRIQPSIHDHNIPTLEAVVGVPQPPSEGPITHQWSVQMEPPVPCHYEDLERLPDAAEPCLPGALFRCPVVFRQEILVQVIGTLELVGEIEASSMFSLCSSLSISFNSSKHFHLYGSNASLAQVVMKVDVVYEKQMLYLYVLSGIGGLLLLLLIFIVLYKVGFFKRNLKEKMEAGRGVPNGIPAEDSEQLASGQEAGDPGCLKPLHEKDSESGGGKD
partner: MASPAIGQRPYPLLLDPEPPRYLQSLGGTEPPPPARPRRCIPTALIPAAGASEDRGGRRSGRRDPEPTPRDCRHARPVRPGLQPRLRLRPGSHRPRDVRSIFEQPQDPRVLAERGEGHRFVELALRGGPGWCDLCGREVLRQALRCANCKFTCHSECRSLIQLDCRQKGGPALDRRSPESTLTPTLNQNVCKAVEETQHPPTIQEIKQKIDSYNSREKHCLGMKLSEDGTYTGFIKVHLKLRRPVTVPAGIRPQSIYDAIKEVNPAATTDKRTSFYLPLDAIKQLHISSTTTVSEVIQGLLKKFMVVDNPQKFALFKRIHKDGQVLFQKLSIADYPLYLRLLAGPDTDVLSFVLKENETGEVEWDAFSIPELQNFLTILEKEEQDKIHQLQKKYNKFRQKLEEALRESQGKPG

Variants of: B1
Settings: with rasf5_mouse Rassf5, Q5EBH1

Row | Variant | effect of a mutation on the interaction
1 | K1122A;K1124A | disrupting interaction

From IntAct's records for PubMed 12845325
